Data on one substance can be found in article PMC10783487.

For this data set, the target named is T1, TbrCan2 E341A E341A (Thermoanaerobacter brockii subsp. finnii Ako-1 DSM 1457) (UniProt E8URK0).
T1 sequence: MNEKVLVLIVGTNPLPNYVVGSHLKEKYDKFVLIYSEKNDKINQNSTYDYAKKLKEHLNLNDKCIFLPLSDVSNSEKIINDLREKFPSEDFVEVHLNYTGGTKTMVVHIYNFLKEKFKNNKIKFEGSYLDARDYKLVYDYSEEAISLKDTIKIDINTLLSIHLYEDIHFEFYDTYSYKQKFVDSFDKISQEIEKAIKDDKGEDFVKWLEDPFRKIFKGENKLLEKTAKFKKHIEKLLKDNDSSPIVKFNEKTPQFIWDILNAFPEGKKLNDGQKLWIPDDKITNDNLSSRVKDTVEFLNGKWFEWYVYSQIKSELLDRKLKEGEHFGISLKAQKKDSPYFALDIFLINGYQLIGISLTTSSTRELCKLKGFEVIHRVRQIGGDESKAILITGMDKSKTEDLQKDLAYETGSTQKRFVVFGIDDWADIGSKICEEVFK
Nature of the data set: EMSA.

As to ssRNA substrate, the Kd (as a rule, a measure of binding affinity in units of concentration) was 240 nM.
